doi:10.1101/2022.02.24.481830 (bioRxiv, 2022)

Experiments:
H3 COBRA NG2 HA protein = H3 COBRA NG2 HA protein (Influenza A virus H3, synthetic …)
H3 COBRA J4 HA protein = H3 COBRA J4 HA protein (Influenza A virus H3, synthetic …)
H3 COBRA TJ5 HA protein = H3 COBRA TJ5 HA protein (Influenza A virus H3, synthetic …)

Measured: binding result

B1: TJ5-16 (antibody, V domains shown)
VH: EVQLVQSGAEVKKPGASVKVSCKASGYTFTGYYIYWVRQAPGQGLEWMGWINPNGGGTNYAQKFQGRVTMTRDTSITTAYMELSRLRSDDSAVYYCAARAGPGTQDAQTIDFWGQGTLVTVSS
VL: SYELTQPPSVSVSPGQTARITCSGDALPKQYGYWYQQKPGQAPVLVIYKDSERPSGIPERFSGSSSGTTVTLTISGVQAEDEADYYCQSADSSGSYWVFGGGTKLT
binds: all assays above
